This note sets out measurements from publication PMC2783589.

Broadly, the stoichiometry N is a count of units in the complex or per binding partner.

The assay concerns the target revised CpaD from Aspergillus flavus NRRL3357 (full length, with the 43 N-terminal residues added) (Aspergillus flavus NRRL3357). Put plainly: SEC.

As for “revised CpaD from Aspergillus flavus NRRL3357 (full length, with the 43 N-terminal residues added) (enzyme)”, the stoichiometry N amounted to 2.
